Assays:
Wistar rats = assay: Administration of nesfatin-1, nesfatin-2, nesfatin-3, nesfatin-2/3 into the third ventricle, amount of food intake; format: in vivo, rat
Method: Samples used for intracerebral administration were PBS alone (vehicle group), or nesfatin-1, nesfatin-2, nesfatin-3 or nesfatin-2/3 prepared in Working Example 10 each dissolved in PBS, and 25 pmol was administered per individual into the third ventricle immediately before the dark period. Rats used were Wistar rats (purchased from Nippon SLC) and were housed as in Working Example 6, and among 8-9 week-old male Wistar rats, those individuals weighing 200-250 g were selected and used (N=5). The technique of intraventricular administration and the measurement of the amount of food intake in rats were carried out in a method similar to those in Working Example 6. In the measurement of the amount of food intake, the reduced amount of food at 1 hour after administration (0-1 hr) and 2 hours after administration (1-3 hrs) was determined as food intake.
In the same condition above, 1, 5 or 25 pmol of nesfatin-1 as a sample was administered per rat individual into the third ventricle immediately before the dark period. In this experiment, the amount of food intake was determined at 1 hour after administration (0-1 hr).
The experimental condition was similar to that in Working Example 12, and 5 pmol of nesfatin-1 was administered into the third ventricle of the rat brain immediately before the start of the dark period, the amount decreased of the food (the amount of food intake) during 1 hour immediately after administration (0-1 hr), during 2 hours from 1 hour after the administration (1-3 hr), during 3 hours from 3 hours after the administration (3-6 hr), and during 6 hours from 6 hours after the administration (6-12 hr) was measured as the amount of food intake. As the control group, the amount of food intake by individuals that received physiological saline alone was measured.
The experimental condition was similar to that in Working Example 12, and for a group that received 5 pmol of nesfatin-1 alone into the third ventricle of the rat brain immediately before the start of the dark period and a group that received 5 pmol of nesfatin-1 and 8 μg of anti-nesfatin-1 antibody (nesfatin-1 IgG), the amount of food intake for 1 hour after administration was measured and compared to that for the control group (physiological saline alone was administered). Also, for a group that received only leptin (Rat leptin: R & D Systems, 598-LP-01M) (1 μg) which is known to have an activity of suppressing food intake by intraventricular administration and a group that received leptin and anti-nesfatin-1 antibody, its effect on food intake was also studied.

ICR mice = assay: Intraperitoneal administration of nesfatin-1 to ICR mice, food intake; format: in vivo, mouse; conditions: 0-3 hours
Method: The experimental animal was 7 week-old male ICR mice purchased from Japan SLC, Inc., and were housed after purchase in a cycle of 12 hours of the light period from 6 a.m. to 6 p.m. and 12 hours of the dark period from 6 p.m. to 6 a.m. the next morning with free access to a pellet food (Nippon Clea, CE-2), kept at 22° C., and housing was continued in a similar condition during the experiment period. The mice purchased were subjected to preliminary housing for over one week, individuals weighing 35-40 g were selected among 8 to 9 week-old individuals and were used in the experiment.
The sample used in the administration was the recombinant mouse nesfatin-1 prepared in Working Example 16 dissolved in 200 μl of physiological saline so as to contain 2 nmol, 10 nmol or 50 nmol, and as the control sample, physiological saline (Saline) alone was used. Using a tuberculin syringe equipped with a 25G needle, 200 μl each of the sample was administered once into the abdominal cavity of each mouse (5 animals per group), and the time of administration was immediately before the start (6 p.m.) of the dark period.
(§1) Each mouse that received administration was placed in an individual cage, and during 0-3 hours after the administration the weight decreased of the pellet food was measured to determine the amount of food intake. For testing of significant difference, analysis of variance was used.

Agouti-yellow mice = assay: Intraperitoneal administration of nesfatin-1 to Agouti-yellow mice, food intake; format: in vivo, mouse; conditions: nesfatin-1 (10 pmol) ip, 0-3 hours
Excerpt: In the experiment on the animal model of obesity, C57BL/6J mice were used as the control group and Agouti-yellow mice were used as the animal model of obesity, and these animals were purchased from Nippon Charles River (Jackson Lab.). The housing condition and the week age of the mice used were similar to those for the ICR mice, whereas individuals weighing 25-28 g for the control group mice and individuals weighing 31-38 g for the Agouti-yellow mice were selected and used. […] Other conditions were similar to those in the above.
as §1

rats = assay: Continuous administration of nesfatin-1 into the rat ventricle, weight of adipose tissue; format: in vivo; conditions: 5 pmol per day, third ventricle, 10 days; vs saline
Method: Nesfatin-1 (5 pmol per day) or physiological saline alone (the control group) was administered into the third ventricle of a rat using an osmotic pump for 10 consecutive days (5 and 4 rats were used per group). Intraventricular administration into rats by the osmotic pump was carried out in a manner similar to that in Working Example 13.
After the administration of nesfatin-1 or physiological saline alone for 10 days, each rat was sacrificed, dissected to excise all of the abdominal subcutaneous adipose tissue, the epididymal adipose tissue (these are white adipose tissue) and the retroperitoneal brown adipose tissue, and the weight of them was measured. Also, the gastrocnemial muscles of the bilateral hind legs were harvested and the weight of them was measured. From the weight of the tissues measured, their ratio to the body weight of each individual was determined (tissue weight/body weight, mg/g). For testing of significant difference, analysis of variance was used.

C57BL/6J mice = assay: Intraperitoneal administration of nesfatin-1 to c57BL/6J mice, food intake and blood biochemical parameters; format: in vivo; conditions: recombinant mouse nesfatin-1 10 nmol ip; 0-3 hours; vs saline
Method: As experimental animals, 7 week-old male c57BL/6J mice were purchased from Nippon Clea, and were housed in a cycle of 12 hours of the light period from 6 a.m. to 6 p.m. and […] of the dark period from 6 p.m. to 6 a.m. the next morning and were allowed free access to a pellet food (Nippon Clea, CE-2), and kept at 22° C.
Into the abdominal cavity of the c57BL/6J mice, 10 nmol of recombinant mouse nesfatin-1 prepared in Working Example 16 dissolved in 100 μl of physiological saline was administered, and as the control sample physiological saline alone was used. Using a tuberculin syringe equipped with a 26G needle, 100 μl each of the sample was administered once into the abdominal cavity of each mouse (5 animals per group), and the time of administration was immediately before the start (6 p.m.) of the dark period.
Each mouse that received administration was placed in an individual cage, and during 0-3 hours after the administration the weight decreased of the pellet food was measured to determine the amount of food intake. Also, 3 hours after the administration each mouse was sacrificed by decapitation to collect whole blood, and serum was collected therefrom. For the serum, the contents of glucose, total cholesterol and triglyceride were measured using commercial reagents for determination (KYOWA MEDEX, Determiner L GLUII, Determiner L TCII, Determiner L TGII).

B1: nesfatin-1: 82-residue peptide, amino acid Nos. 25 to 106 of nesfatin (SEQ ID NO: 15), solid-phase synthesis (peptide, listed as Rattus norvegicus)
chain: VPIDVDKTKVHNVEPVESARIEPPDTGLYYDEYLKQVIEVLETDPHFREKLQKADIEEIRSGRLSQELDLVSHKVRTRLDEL
amount of food intake (Wistar rats; 5 pmol into the third ventricle, 0-1 hr, 1-3 hr and 3-6 hr, p<0.01 vs control): Significant decreases in the amount of food intake
amount of food intake (Wistar rats; 5 pmol into the third ventricle, 6-12 hr, p<0.01 vs control): an increase in the amount of food intake
amount of food intake (Wistar rats; 5 pmol or 25 pmol intraventricular, 0-1 hr): significant decreased amount of food intake
amount of food intake (Wistar rats; 25 pmol into the third ventricle before dark period, 0-1 hr and 1-3 hr, vs control): marked effect on the suppression of feeding
amount of food intake (Wistar rats; 1, 5 or 25 pmol per rat intraventricular, 0-1 hr, vs saline): decreased amount of food intake, with the increased amount of the administered nesfatin-1
amount of food intake (ICR mice; recombinant mouse nesfatin-1 2 nmol per mouse ip, vs Saline): decreases in the amount of food intake
amount of food intake (ICR mice; recombinant mouse nesfatin-1 10 nmol per mouse ip, p<0.05): statistically significant decreases in the amount of food intake
amount of food intake (ICR mice; recombinant mouse nesfatin-1 50 nmol per mouse ip, p<0.005): statistically significant decreases in the amount of food intake
amount of food intake (Agouti-yellow mice): significantly decreased
ratio of tissue weight to body weight, abdominal subcutaneous adipose tissue (rats): significant decreases
ratio of tissue weight to body weight, brown adipose tissue (rats): no significant difference
ratio of tissue weight to body weight, epididymal adipose tissue (rats): significant decreases
ratio of tissue weight to body weight, gastrocnemial muscle (rats): no significant difference
ratio of tissue weight to body weight, mesenteric adipose tissue (rats): significant decreases
ratio of tissue weight to body weight, retroperitoneal adipose tissue (rats): tended to decrease but no significant difference
amount of food intake (C57BL/6J mice): significantly reduced
